Among the data in the supplement of paper PMC10724198 are protein stability index values, retold here.

The series concerns Saccharomyces cerevisiae. Description: protein stability index of tFT-peptide fusion (C-terminal peptide) (PSI (0-1 scale)); higher = more stable (slower turnover). The conditions noted are these: temperature: 30 C. How it is done:
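MPS profiling in S. cerevisiae of the yeast C-terminome library: the last 12 aa of each annotated ORF are fused to the C-terminus of a sfGFP-mCherry timer, after a GGGS linker. Cells are FACS-sorted into 8 mCherry/sfGFP bins and deep-sequenced. PSI runs from 0 (unstable) to 1 (stable); wild type and das1Δ backgrounds, two technical replicates each.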

The mark [1] stands for this setting: genetic background: das1 deletion.

± gives the standard deviation of the averaged measurements.

As for NSIDIGSRLSLM [PEX1 C-terminal 12 aa], the protein stability index was 0.704 ± 0.0078 under setting [1] and 0.68911 ± 4.9e-05 (genetic background: wild type).

As for NSKVMNIKALDH [MRPL10 C-terminal 12 aa], the protein stability index reads like this: under setting [1], 0.6653 ± 0.0031; (genetic background: wild type) 0.6725 ± 0.0055.

As to “NSLTSLSIYAFL [YEL018C-A C-terminal 12 aa]”, the protein stability index reads like this: under setting [1], 0.7094 ± 0.0019; (genetic background: wild type) 0.685 ± 0.022.

Regarding NSNKKKGFKSRR [DRS1 C-terminal 12 aa], the protein stability index by setting is: under setting [1], 0.682 ± 0.017; (genetic background: wild type) 0.732 ± 0.0088.

Consider NTANRIIEELLK [UBC1 C-terminal 12 aa], for which the protein stability index is 0.68955 ± 0.00029 under setting [1] and 0.67 ± 0.032 (genetic background: wild type).

On to NTMGKSGRHNIT [YOR282W C-terminal 12 aa], for which the protein stability index reads like this: under setting [1], 0.6851 ± 0.0044; (genetic background: wild type) 0.685 ± 0.032.

In the case of NVGKQLSNEIIY [PRP28 C-terminal 12 aa], the protein stability index was 0.695 ± 0.045 under setting [1] and 0.686 ± 0.042 (genetic background: wild type).

With NVLGEPFDRYLD [UTP10 C-terminal 12 aa], the protein stability index is, setting by setting: under setting [1], 0.724 ± 0.017; (genetic background: wild type) 0.716 ± 0.013.

Take NVPVSNGTTAAQ [UTP23 C-terminal 12 aa]: the protein stability index was 0.695 ± 0.013 under setting [1] and 0.691 ± 0.025 (genetic background: wild type).

In the case of NYFIITCIGIIM [YPL261C C-terminal 12 aa], the protein stability index reads like this: under setting [1], 0.228 ± 0.029; (genetic background: wild type) 0.247 ± 0.0067.

In the case of NYGQYSSFWSLL [YOR055W C-terminal 12 aa], the protein stability index under setting [1] was 0.765 ± 0.019 and the protein stability index (genetic background: wild type) was determined as 0.754 ± 0.017.

On to PADIATDHDITM [TAF8 C-terminal 12 aa], for which the protein stability index is, setting by setting: under setting [1], 0.717 ± 0.013; (genetic background: wild type) 0.685 ± 0.0044.

With PAKVGIVKGEEN [MGE1 C-terminal 12 aa], the protein stability index worked out at 0.693 ± 0.021 under setting [1] and 0.709 ± 0.015 (genetic background: wild type).

Consider PCRYLELRKFGR [TPN1 C-terminal 12 aa], for which the protein stability index is 0.7005 ± 0.0046 under setting [1] and 0.74 ± 0.045 (genetic background: wild type).

With PFGNGFKMNFGL [JEM1 C-terminal 12 aa], the protein stability index turned out to be 0.736 ± 0.038 under setting [1] and 0.677 ± 0.058 (genetic background: wild type).

As to PFKAIFDAVTKE [ARO1 C-terminal 12 aa], the protein stability index is 0.73 ± 0.014 under setting [1] and 0.717 ± 0.021 (genetic background: wild type).

Take PFYRTSAESIDF [SLM5 C-terminal 12 aa]: the protein stability index reads like this: under setting [1], 0.719 ± 0.022; (genetic background: wild type) 0.706 ± 0.034.

Regarding PGCVIENGTKLY [ADE57 C-terminal 12 aa], the protein stability index reads like this: under setting [1], 0.687 ± 0.012; (genetic background: wild type) 0.71 ± 0.011.

“PIKIIYNNKCPS [YLL006W-A C-terminal 12 aa]”: the protein stability index runs as follows: under setting [1], 0.709 ± 0.02; (genetic background: wild type) 0.688 ± 0.0074.

With PKGGNYVSRYQR [THO2 C-terminal 12 aa], the protein stability index by setting is: under setting [1], 0.695 ± 0.012; (genetic background: wild type) 0.6623 ± 0.0015.

On to PKINPLHARKPT [RAD52 C-terminal 12 aa], for which the protein stability index is, setting by setting: under setting [1], 0.7086 ± 0.0022; (genetic background: wild type) 0.7036 ± 0.0028.

For the sequence PKSNMYYSWTQL [ORC4 C-terminal 12 aa], the protein stability index was 0.7112 ± 0.0057 under setting [1] and 0.68625 ± 0.00028 (genetic background: wild type).

Turning to PLALFYSHLILL [YGR151C C-terminal 12 aa], the protein stability index was 0.6 ± 0.019 under setting [1] and 0.27 ± 0.016 (genetic background: wild type).

In the case of PLGVQFLDTFRR [DSC2 C-terminal 12 aa], the protein stability index amounted to 0.718 ± 0.013 under setting [1] and 0.736 ± 0.051 (genetic background: wild type).

With “PLHFQLIWLPIF [YML099W-A C-terminal 12 aa]”, the protein stability index reads like this: under setting [1], 0.5232 ± 0.00075; (genetic background: wild type) 0.505 ± 0.012.

Consider “PLKFPLPLKPPL [YHL034W-A C-terminal 12 aa]”, for which the protein stability index is 0.715 ± 0.018 under setting [1] and 0.699 ± 0.022 (genetic background: wild type).

On to PLMFHCTRWEVD [GEP5 C-terminal 12 aa], for which the protein stability index runs as follows: under setting [1], 0.6911 ± 0.0033; (genetic background: wild type) 0.741 ± 0.064.

Sequence PLPDLDEDDGEE [DOM34 C-terminal 12 aa] gave a protein stability index under setting [1] of 0.686 ± 0.0069 and a protein stability index (genetic background: wild type) of 0.704 ± 0.041.

For PLSASWCTSLVT [YHR173C C-terminal 12 aa], the protein stability index by setting is: under setting [1], 0.696 ± 0.0087; (genetic background: wild type) 0.671 ± 0.0088.

Turning to PNFGFLILNSEP [YAL064W C-terminal 12 aa], the protein stability index under setting [1] is 0.73226 ± 0.00022 and the protein stability index (genetic background: wild type) turned out to be 0.68 ± 0.014.

On to PNILLAFSYTAW [YNL170W C-terminal 12 aa], for which the protein stability index is 0.532 ± 0.017 under setting [1] and 0.5663 ± 0.0014 (genetic background: wild type).

With PPPPSRKCGTPK [LDB17 C-terminal 12 aa], the protein stability index worked out at 0.713 ± 0.038 under setting [1] and 0.7238 ± 0.0025 (genetic background: wild type).

Consider PSMTTTNFSAFM [ECM22 C-terminal 12 aa], for which the protein stability index worked out at 0.698 ± 0.008 under setting [1] and 0.697 ± 0.058 (genetic background: wild type).

Regarding PSPTALANLARK [SGF29 C-terminal 12 aa], the protein stability index stood at 0.677 ± 0.039 under setting [1] and 0.693 ± 0.041 (genetic background: wild type).

As for PSSKAPSPGVNT [TEM1 C-terminal 12 aa], the protein stability index under setting [1] came to 0.677 ± 0.017 and the protein stability index (genetic background: wild type) is 0.64 ± 0.026.

As for PTPPGLQGPPGL [MSL5 C-terminal 12 aa], the protein stability index came out at 0.692 ± 0.018 under setting [1] and 0.693 ± 0.0097 (genetic background: wild type).

PVSESSSPNSWP [YDR230W C-terminal 12 aa]: the protein stability index is, setting by setting: under setting [1], 0.768 ± 0.012; (genetic background: wild type) 0.706 ± 0.02.

On to QAADKRIDRNNP [SRD1 C-terminal 12 aa], for which the protein stability index was determined as 0.7185 ± 0.0037 under setting [1] and 0.702 ± 0.022 (genetic background: wild type).

QDELDAMKEMGF [CSM3 C-terminal 12 aa]: the protein stability index came to 0.698 ± 0.023 under setting [1] and 0.699 ± 0.049 (genetic background: wild type).

As for QDRSCSWLKLLL [YLR171W C-terminal 12 aa], the protein stability index reads like this: under setting [1], 0.685 ± 0.021; (genetic background: wild type) 0.704 ± 0.021.

Regarding QEISYKFSKTYS [IME1 C-terminal 12 aa], the protein stability index by setting is: under setting [1], 0.676 ± 0.021; (genetic background: wild type) 0.664 ± 0.038.

Consider QELISLIDVINQ [RNH203 C-terminal 12 aa], for which the protein stability index under setting [1] worked out at 0.7225 ± 0.005 and the protein stability index (genetic background: wild type) is 0.739 ± 0.035.

With QFKQILENYRPT [VPS38 C-terminal 12 aa], the protein stability index by setting is: under setting [1], 0.664 ± 0.0088; (genetic background: wild type) 0.7348 ± 0.0013.

Regarding QIVGLLKLLASI [PEX15 C-terminal 12 aa], the protein stability index reads like this: under setting [1], 0.68 ± 0.036; (genetic background: wild type) 0.405 ± 0.038.

In the case of QIVGRYVVDTSK [ADH1 C-terminal 12 aa], the protein stability index stood at 0.6827 ± 0.0057 under setting [1] and 0.683 ± 0.015 (genetic background: wild type).

In the case of QKIDNALKMTGR [YDR102C C-terminal 12 aa], the protein stability index amounted to 0.6896 ± 0.0062 under setting [1] and 0.705 ± 0.0095 (genetic background: wild type).

Take QKLHAIDGEDEL [GPI17 C-terminal 12 aa]: the protein stability index turned out to be 0.688 ± 0.017 under setting [1] and 0.649 ± 0.028 (genetic background: wild type).

Take QLQDLLSSENNK [AIM11 C-terminal 12 aa]: the protein stability index reads like this: under setting [1], 0.7169 ± 0.0021; (genetic background: wild type) 0.688 ± 0.032.

Regarding QNYPIVSFSRVI [OSW1 C-terminal 12 aa], the protein stability index is, setting by setting: under setting [1], 0.7236 ± 0.0058; (genetic background: wild type) 0.685 ± 0.012.

Take QPINLDSISDDL [DRE2 C-terminal 12 aa]: the protein stability index is 0.7068 ± 0.0039 under setting [1] and 0.766 ± 0.12 (genetic background: wild type).

QQYFQEPQQGQY [MCM1 C-terminal 12 aa] had a protein stability index under setting [1] of 0.676 ± 0.0068 and a protein stability index (genetic background: wild type) of 0.703 ± 0.077.

With QSATKNQQNQGK [SSQ1 C-terminal 12 aa], the protein stability index was determined as 0.679 ± 0.011 under setting [1] and 0.656 ± 0.01 (genetic background: wild type).

In the case of QSKNIEIFSQIK [YGR067C C-terminal 12 aa], the protein stability index by setting is: under setting [1], 0.71 ± 0.031; (genetic background: wild type) 0.695 ± 0.018.

As for QSQYSSRFVELD [MCO12 C-terminal 12 aa], the protein stability index is, setting by setting: under setting [1], 0.691 ± 0.015; (genetic background: wild type) 0.6892 ± 0.0068.

In turn, QVKLSILKSLGF [UBC7 C-terminal 12 aa] displayed a protein stability index under setting [1] of 0.702 ± 0.02 and a protein stability index (genetic background: wild type) of 0.657 ± 0.0096.

With QVTAVVVSYQGV [ATG11 C-terminal 12 aa], the protein stability index turned out to be 0.5882 ± 0.0024 under setting [1] and 0.5999 ± 0.0039 (genetic background: wild type).

RAGSHSVGLLPM [UIP5 C-terminal 12 aa]: the protein stability index is 0.6976 ± 0.0019 under setting [1] and 0.6835 ± 0.0029 (genetic background: wild type).

Turning to RAQPGRKRKHKK [RSC58 C-terminal 12 aa], the protein stability index reads like this: under setting [1], 0.743 ± 0.019; (genetic background: wild type) 0.696 ± 0.0068.

For the sequence RDGQKTSLIRLI [YBR259W C-terminal 12 aa], the protein stability index is, setting by setting: under setting [1], 0.711 ± 0.035; (genetic background: wild type) 0.57 ± 0.11.

Consider REETEKLNINKD [YAR1 C-terminal 12 aa], for which the protein stability index is, setting by setting: under setting [1], 0.71 ± 0.014; (genetic background: wild type) 0.66 ± 0.067.

For REVREIHEMYCK [YKR012C C-terminal 12 aa], the protein stability index by setting is: under setting [1], 0.696 ± 0.034; (genetic background: wild type) 0.6885 ± 0.0035.

In the case of RGDDGESYAYLA [CDC53 C-terminal 12 aa], the protein stability index runs as follows: under setting [1], 0.69274 ± 0.00042; (genetic background: wild type) 0.691 ± 0.0089.

RGFSFMPDDLDL [PKC1 C-terminal 12 aa]: the protein stability index reads like this: under setting [1], 0.722 ± 0.013; (genetic background: wild type) 0.72 ± 0.028.

For the sequence RHQGQNIYRSGV [MCM5 C-terminal 12 aa], the protein stability index is, setting by setting: under setting [1], 0.682 ± 0.03; (genetic background: wild type) 0.674 ± 0.022.

In the case of RHSMSEEELEMY [KTR4 C-terminal 12 aa], the protein stability index reads like this: under setting [1], 0.689 ± 0.034; (genetic background: wild type) 0.685 ± 0.044.

In turn, RKFSSSTNLAKF [TOS8 C-terminal 12 aa] returned a protein stability index under setting [1] of 0.779 ± 0.039 and a protein stability index (genetic background: wild type) of 0.81 ± 0.012.

On to RKGWTGFKKVFK [GYP5 C-terminal 12 aa], for which the protein stability index was 0.695 ± 0.025 under setting [1] and 0.699 ± 0.061 (genetic background: wild type).
